What was measured:
[1] = target: Tax deletion mutant TD1 (Δ1–37) (HTLV-1, UniProt P03409 38-353); experiment: cell-based or functional assay
[2] = target: Tax deletion mutant TD55 (Δ55–92) (HTLV-1, UniProt P03409 1-353, Δ55–92); experiment: cell-based or functional assay

B1: Drosha (endogenous, 293T cell lysate) (enzyme, human (endogenous in 293T), UniProt Q9NRR4 1-1374, looked up)
chain: MMQGNTCHRMSFHPGRGCPRGRGGHGARPSAPSFRPQNLRLLHPQQPPVQYQYEPPSAPSTTFSNSPAPNFLPPRPDFVPFPPPMPPSAQGPLPPCPIRPPFPNHQMRHPFPVPPCFPPMPPPMPCPNNPPVPGAPPGQGTFPFMMPPPSMPHPPPPPVMPQQVNYQYPPGYSHHNFPPPSFNSFQNNPSSFLPSANNSSSPHFRHLPPYPLPKAPSERRSPERLKHYDDHRHRDHSHGRGERHRSLDRRERGRSPDRRRQDSRYRSDYDRGRTPSRHRSYERSRERERERHRHRDNRRSPSLERSYKKEYKRSGRSYGLSVVPEPAGCTPELPGEIIKNTDSWAPPLEIVNHRSPSREKKRARWEEEKDRWSDNQSSGKDKNYTSIKEKEPEETMPDKNEEEEEELLKPVWIRCTHSENYYSSDPMDQVGDSTVVGTSRLRDLYDKFEEELGSRQEKAKAARPPWEPPKTKLDEDLESSSESECESDEDSTCSSSSDSEVFDVIAEIKRKKAHPDRLHDELWYNDPGQMNDGPLCKCSAKARRTGIRHSIYPGEEAIKPCRPMTNNAGRLFHYRITVSPPTNFLTDRPTVIEYDDHEYIFEGFSMFAHAPLTNIPLCKVIRFNIDYTIHFIEEMMPENFCVKGLELFSLFLFRDILELYDWNLKGPLFEDSPPCCPRFHFMPRFVRFLPDGGKEVLSMHQILLYLLRCSKALVPEEEIANMLQWEELEWQKYAEECKGMIVTNPGTKPSSVRIDQLDREQFNPDVITFPIIVHFGIRPAQLSYAGDPQYQKLWKSYVKLRHLLANSPKVKQTDKQKLAQREEALQKIRQKNTMRREVTVELSSQGFWKTGIRSDVCQHAMMLPVLTHHIRYHQCLMHLDKLIGYTFQDRCLLQLAMTHPSHHLNFGMNPDHARNSLSNCGIRQPKYGDRKVHHMHMRKKGINTLINIMSRLGQDDPTPSRINHNERLEFLGDAVVEFLTSVHLYYLFPSLEEGGLATYRTAIVQNQHLAMLAKKLELDRFMLYAHGPDLCRESDLRHAMANCFEALIGAVYLEGSLEEAKQLFGRLLFNDPDLREVWLNYPLHPLQLQEPNTDRQLIETSPVLQKLTEFEEAIGVIFTHVRLLARAFTLRTVGFNHLTLGHNQRMEFLGDSIMQLVATEYLFIHFPDHHEGHLTLLRSSLVNNRTQAKVAEELGMQEYAITNDKTKRPVALRTKTLADLLESFIAALYIDKDLEYVHTFMNVCFFPRLKEFILNQDWNDPKSQLQQCCLTLRTEGKEPDIPLYKTLQTVGPSHARTYTVAVYFKGERIGCGKGPSIQQAEMGAAMDALEKYNFPQMAHQKRFIERKYRQELKEMRWEREHQEREPDETEDIKK
miR326 expression (quantiMiR PCR, normalized to U6, relative to mock) in 293T cells transfected with the Tax mutant [1]: 1.5 fold | miR326 expression (quantiMiR PCR, normalized to U6, relative to mock) in 293T cells transfected with the Tax mutant [2]: 4 fold

Source: paper PMC3393700, “Localization and Sub-Cellular Shuttling of HTLV-1 Tax with the miRNA Machinery” (PLoS ONE, 2012)
